Consider 13 molecules from US20230416347A1 (UNIVERSITY OF TENNESSEE RESEARCH FOUNDATION, published 2023).

Changes are numbered by the printed parent chain. Names may count otherwise.

The target in the assay is T1, Len(1-22) monomer peptide (Homo sapiens (Human), UniProt P06312 21-42).
T1 construct: Analyte in SPR; on beads in the pulldown assay; also called Vκ4(LEN(1-22) beads)
T1 peptide: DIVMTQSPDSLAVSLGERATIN
Nature of the assay: SPR, antibody as ligand, peptide as analyte.

B1: VH9 + VL4-G34A (antibody, V domains shown)
VH: QVQLQESGPGLVKPSETLSLTCTVSGFSLSSYGVSWIRQPPGKGLEWLGVIWGDGSTNYHPNLMSRVTISVDTSKSQVLFKLSSVTAADTAVYYCATLDYWGQGTSVTVSS
VL: DVVMTQSPLSLPVTLGQPASISCRSSQSLVHRNANTYLHWFQQRPGQSPRLLIYKVSNRFSGVPDRFSGSGSGTDFTLKISRVEAEDVGVYFCFQTTYVPNTFGGGTKLEIK
notes: Humanized 11-1F4 variant
Broadly, the Kd is the free concentration of one partner at which half of the binding sites on the other are occupied at equilibrium, for simple one-to-one binding. Read a low Kd as higher affinity. The term koff denotes the rate constant with which the complex falls apart. Lower therefore signals slow dissociation. What is called kon is the rate constant with which the complex forms. Lower therefore signals slow association. For the molecule B1, the equilibrium dissociation constant (Kd) amounted to 30.4 nM, the off-rate (koff) stood at 0.00181 s⁻¹ and the kon came out at 59500 M⁻¹ s⁻¹.

B2: VH9-D54H + VL4 (antibody, V domains shown)
VH: B1 VH with D54H
VL: B1 VL with A34G
notes: Humanized 11-1F4 variant
B2 returned a Kd of 235 nM, a koff of 0.00139 s⁻¹ and a kon of 5930 M⁻¹ s⁻¹.

B3: VH9 + VL4-N33S (antibody, V domains shown)
VH: B1 VH
VL: B1 VL with N33S, A34G
notes: Humanized 11-1F4 variant
Take B3: the Kd was found to be 66.9 nM, the koff worked out at 0.000954 s⁻¹ and the kon was 14300 M⁻¹ s⁻¹.

B4: VH9-D54S + VL4 (antibody, V domains shown)
VH: B1 VH with D54S
VL: B1 VL with A34G
notes: Humanized 11-1F4 variant
Molecule B4 gave a Kd of 60.5 nM, a koff of 0.000139 s⁻¹ and a kon of 2300 M⁻¹ s⁻¹.

B5: VH9-D54Q + VL4 (antibody, V domains shown)
VH: B1 VH with D54Q
VL: B1 VL with A34G
notes: Humanized 11-1F4 variant
B5: the Kd was found to be 256 nM, the off-rate (koff) amounted to 0.000997 s⁻¹ and the kon worked out at 3900 M⁻¹ s⁻¹.

B6: VH9-D54E + VL4 (antibody, V domains shown)
VH: B1 VH with D54E
VL: B1 VL with A34G
notes: Humanized 11-1F4 variant
Regarding B6, binding was characterised by a dissociation constant (Kd) of 163 nM, the koff was 0.00135 s⁻¹ and the kon was found to be 8280 M⁻¹ s⁻¹.

B7: VH9-G55V + VL4 (antibody, V domains shown)
VH: B1 VH with G55V
VL: B1 VL with A34G
notes: Humanized 11-1F4 variant
In the case of B7, the affinity, expressed as Kd, was 483 nM; the koff is 0.00163 s⁻¹; the kon came to 3380 M⁻¹ s⁻¹.

B8: VH9 + VL4-N33H (antibody, V domains shown)
VH: B1 VH
VL: B1 VL with N33H, A34G
notes: Humanized 11-1F4 variant
The molecule B8 gave a dissociation constant (Kd) of 56.6 nM, a koff of 0.000743 s⁻¹ and a kon of 13100 M⁻¹ s⁻¹.

B9: VH9 + VL4-N33E (antibody, V domains shown)
VH: B1 VH
VL: B1 VL with N33E, A34G
notes: Humanized 11-1F4 variant
As for B9, binding was put at a Kd of 106 nM, the koff was 0.00131 s⁻¹ and the kon worked out at 12300 M⁻¹ s⁻¹.

B10: VH9-D54A + VL4 (antibody, V domains shown)
VH: B1 VH with D54A
VL: B1 VL with A34G
notes: Humanized 11-1F4 variant
As for B10, binding was characterised by a dissociation constant (Kd) of 2180 nM, the dissociation rate constant (koff) was found to be 0.000778 s⁻¹ and the kon was determined as 356 M⁻¹ s⁻¹.

B11: VH9 + VL4-N33Q (antibody, V domains shown)
VH: B1 VH
VL: B1 VL with N33Q, A34G
notes: Humanized 11-1F4 variant
The molecule B11 came in with an equilibrium dissociation constant (Kd) of 78.4 nM, an off-rate (koff) of 0.00104 s⁻¹ and an on-rate (kon) of 13300 M⁻¹ s⁻¹.

B12: VH9 + VL4-N33A (antibody, V domains shown)
VH: B1 VH
VL: B1 VL with N33A, A34G
notes: Humanized 11-1F4 variant
Consider B12, for which the Kd is 88.5 nM, the koff came out at 0.001 s⁻¹ and the kon came to 11300 M⁻¹ s⁻¹.

B13: VH9-G55A + VL4 (antibody, V domains shown)
VH: B1 VH with G55A
VL: B1 VL with A34G
notes: Humanized 11-1F4 variant
The molecule B13 came in with a Kd of 17.2 nM, a koff of 0.000484 s⁻¹ and a kon of 28200 M⁻¹ s⁻¹.
